Here are results for 1 molecule from patent EP4725970A1 (Fortvita Biologics Inc., dated 2026).

Where a chain is given by its changes, count along the chain named. Like-named read-outs stand apart in the source and are kept apart here.

The target of assay [1] is T1, human GPRC5D (full-length, on cells) (human, UniProt Q9NZD1 1-345). As to the kind of experiment: cell-based or functional assay.
Assay [2] has as its target T2, human BCMA (full-length, on cells) (human, UniProt Q02223 1-184).
T2 sequence: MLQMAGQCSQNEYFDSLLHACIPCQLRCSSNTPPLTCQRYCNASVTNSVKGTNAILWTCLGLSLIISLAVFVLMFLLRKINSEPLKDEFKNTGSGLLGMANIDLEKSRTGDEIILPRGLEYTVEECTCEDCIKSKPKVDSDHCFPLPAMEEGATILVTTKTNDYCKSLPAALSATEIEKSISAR
As to the kind of experiment: cell-based or functional assay.

For assay [3], the target named is T3, human CD3 (on Jurkat cells and human T cells) (human, UniProt P07766 23-207).
T3 construct: whole, on cells; the other chains of the complex on the cells are not described; also called CD3E
T3 sequence (P07766 23-207): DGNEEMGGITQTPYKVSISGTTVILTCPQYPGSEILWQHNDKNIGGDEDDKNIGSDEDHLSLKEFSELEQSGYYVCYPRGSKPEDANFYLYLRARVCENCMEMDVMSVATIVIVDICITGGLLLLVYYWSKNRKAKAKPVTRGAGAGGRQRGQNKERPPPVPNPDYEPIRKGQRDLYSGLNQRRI
In words: flow cytometry, Jurkat cells. (Flow cytometry measures light scatter and fluorescence of single cells or particles in a stream.)

In assay [4] the target is T1, human GPRC5D (full-length, on cells). In words: flow cytometry, GS-CHO-hGPRC5D cells.
In assay [5] the target is T3, human CD3 (on Jurkat cells and human T …). As to the kind of experiment: flow cytometry, human CD8 T cells.
For assay [6], the target named is T4, cynomolgus monkey BCMA (full-length, on cells) (cynomolgus monkey, UniProt A0A2K5UD97 1-183).
T4 construct: whole, on cells; also called cynoBCMA; GS-CHO-cynoBCMA
T4 sequence (A0A2K5UD97 entry or part of it): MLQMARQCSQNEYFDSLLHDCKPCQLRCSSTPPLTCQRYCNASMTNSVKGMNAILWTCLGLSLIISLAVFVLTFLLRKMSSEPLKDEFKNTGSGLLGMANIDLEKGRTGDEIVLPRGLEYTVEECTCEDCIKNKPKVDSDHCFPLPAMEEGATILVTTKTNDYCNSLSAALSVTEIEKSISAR
As to the kind of experiment: flow cytometry, GS-CHO-cynoBCMA cells.

The target of assay [7] is T1, human GPRC5D (full-length, on cells). As to the kind of experiment: cell-based or functional assay. The source holds these as a separate data set.
For assay [8], the target named is T2, human BCMA (full-length, on cells). As to the kind of experiment: flow cytometry, GS-CHO-hBCMA cells.
Assay [9] deals with T3, human CD3 (on Jurkat cells and human T …). In words: flow cytometry, human CD4 T cells.
The target in a further assay is T5, cyno CD3E&G-His/Free (cynomolgus monkey, UniProt Q95LI5 22-117; Q95LI7 23-113).
T5 construct: Bought recombinant heterodimer; also called monkey CD3 E&G
T5 sequence (looked up) 1: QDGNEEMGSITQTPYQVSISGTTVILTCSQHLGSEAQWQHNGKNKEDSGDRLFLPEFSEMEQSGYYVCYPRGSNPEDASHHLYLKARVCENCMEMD
T5 sequence (looked up) 2: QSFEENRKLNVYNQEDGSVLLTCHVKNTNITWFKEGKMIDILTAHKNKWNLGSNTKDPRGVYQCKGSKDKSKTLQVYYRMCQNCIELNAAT
As to the kind of experiment: BLI (Octet), 1:1 fit. In general terms: In BLI a coated tip is dipped into the sample, and binding shifts an interference pattern.

The next assay has as its target T6, human CD3E&G-His/Free (human, UniProt P07766 23-126; P09693 23-116).
T6 construct: Bought recombinant heterodimer; 'His/Free' as printed (one chain His-tagged); also called human CD3 E&G heterodimer
As to the kind of experiment: BLI (Octet), 1:1 fit.

Assay [10] deals with T2, human BCMA (full-length, on cells). In words: cell-based or functional assay. The source holds these as a separate data set.
The target in assay [11] is T7, cynomolgus monkey GPRC5D (full-length, on cells) (cynomolgus monkey, UniProt A0A2K5W6I7 1-300).
T7 construct: also called cynoGPRC5D; GS-CHO-cynoGPRC5D
T7 sequence (A0A2K5W6I7 entry or part of it limits assumed, form in doubt): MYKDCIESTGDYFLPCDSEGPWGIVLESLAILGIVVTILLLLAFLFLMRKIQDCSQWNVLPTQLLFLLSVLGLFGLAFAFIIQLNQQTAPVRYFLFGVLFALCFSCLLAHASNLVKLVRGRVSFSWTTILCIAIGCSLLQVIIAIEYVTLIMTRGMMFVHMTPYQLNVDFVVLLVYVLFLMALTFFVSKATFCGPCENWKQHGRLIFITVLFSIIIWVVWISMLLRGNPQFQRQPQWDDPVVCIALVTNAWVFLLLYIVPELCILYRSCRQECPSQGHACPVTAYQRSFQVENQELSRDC
As to the kind of experiment: flow cytometry, GS-CHO-cynoGPRC5D cells.

Assay [12] addresses T1, human GPRC5D (full-length, on cells). In words: cell-based or functional assay. The source holds these as a separate data set.
Assay [13] addresses T2, human BCMA (full-length, on cells). As to the kind of experiment: cell-based or functional assay. This is another data set of the same source.
In a further assay the target is T8, BCMA-R27P (on cells) (human, UniProt Q02223 1-184).
T8 construct: also called hBCMA-R27P; 293T-hBCMA-R27P
T8 chain: T2 sequence with R27P
In words: flow cytometry on 293T and GS CHO cells (FIG. 2I, 2J).

A further assay addresses T9, BCMA-R39A (on cells) (human, UniProt Q02223 1-184).
T9 construct: also called hBCMA-R39A; 293T-hBCMA-R39A
T9 chain: T2 sequence with R39A
The description is as above.

T6 sequence (P07766 23-126, chain 1 of 2): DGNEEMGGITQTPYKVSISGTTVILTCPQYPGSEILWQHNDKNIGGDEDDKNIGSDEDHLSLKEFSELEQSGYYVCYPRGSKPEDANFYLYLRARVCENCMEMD
T6 sequence (P09693 23-116, chain 2 of 2): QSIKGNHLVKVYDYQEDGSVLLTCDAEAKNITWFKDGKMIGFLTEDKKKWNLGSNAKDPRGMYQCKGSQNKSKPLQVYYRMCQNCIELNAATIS
T1 sequence (Q9NZD1 whole entry): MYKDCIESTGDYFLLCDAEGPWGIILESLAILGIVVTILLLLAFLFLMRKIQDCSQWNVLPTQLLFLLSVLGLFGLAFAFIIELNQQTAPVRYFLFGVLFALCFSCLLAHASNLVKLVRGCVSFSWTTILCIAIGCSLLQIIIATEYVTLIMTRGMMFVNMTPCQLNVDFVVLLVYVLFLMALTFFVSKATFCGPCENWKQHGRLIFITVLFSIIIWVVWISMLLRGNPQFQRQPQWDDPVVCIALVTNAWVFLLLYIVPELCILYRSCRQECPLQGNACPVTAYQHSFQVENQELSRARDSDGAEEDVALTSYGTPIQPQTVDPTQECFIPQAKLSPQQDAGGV

B1: B3 (24) (hz5E12_sp34.24_497_triFab) (trispecific antibody, human IgG1, kappa, lambda, L234A L235A)
heavy 1: not shown
light 1: DIVMTQSPDSLAVSLGERATINCRASESVDSYGITFMNWYQQKPGQPPKLLIYAASNQGSGVPDRFSGSGSGTDFTLTISSLQAEDVAVYYCQQSKEVPWTFGQGTKLEIKRTVAAPSVFIFPPSDEQLKSGTASVVCLLNNFYPREAKVQWKVDNALQSGNSQESVTEQDSKDSTYSLSSTLTLSKADYEKHKVYACEVTHQGLSSPVTKSFNRGEC
heavy 2: not shown
light 2: DIQMTQSPSSLSASVGDRVTITCRASQSISRYLNWYQDKPGKAPKLLIYAASSLQSGVPSRFSGSGSGTDFTLTISSLQPEDFATYYCQQKYFDITFGGGTKVEIKRTVAAPSVFIFPPSDECLKSGTASVVCLLNNFYPREAKVQWKVDNALQSGNSQESVTEQDSKDSTYSLSSTLTLSKADYEKHKVYACEVTHQGLSSPVTKSFNRGES
light 3: QAVVTQEPSLTVSPGGTVTLTCRSSTGAVTTSNYANWVQKKPGQAPRGLIGGTNKRAPGVPARFSGSLLGDKAALTLLGAQPEDEAEYYCALWYSNLWVFGQGTKLTVLGQPKAAPSVTLFPPSSEELQANKATLVCLISDFYPGAVTVAWKADSSPVKAGVETTTPSKQSNNKYAASSYLSLTPEQWKSHRSYSCQVTHEGSTVEKTVAPTECS
notes: also called Exemplary antibody No. 1
On to B1, for which the “EC50 of PBMC killing of H929 ko BCMA cells (LDH)” value is 0.00149 nM in assay [1] and 0.00698 nM in assay [12]. The “EC50 of PBMC killing of H929 ko GPRC5D cells, donor1” value in assay [2] stood at 0.0175 nM. The EC50 (usually the concentration needed to bring the measured effect to its halfway point) in [3] worked out at 34.5 nM; in assay [4], 80.7 nM; in [5], 54.5 nM; in assay [6] it was 14.2 nM; in assay [8] it was 11.4 nM; in [9], 53.6 nM. This molecule returned an EC50 in assay [11] of 256 nM. Moreover, the “EC50 of PBMC killing of H929 ko BCMA cells, donor1” value in assay [7] is 0.00931 nM. For the same molecule, the Kd (as a rule, the equilibrium constant for the complex coming apart) in the assay with cyno CD3E&G-His/Free worked out at 9.51 nM; with human CD3E&G-His/Free it was 13.3 nM. Moreover, the koff – broadly, the rate constant with which the complex falls apart – in the assay with cyno CD3E&G-His/Free was 0.00658 s⁻¹; in the assay with human CD3E&G-His/Free, 0.00859 s⁻¹. Besides, the association rate constant (kon) (commonly a measure of how fast the partners come together) turned out to be 692000 M⁻¹ s⁻¹ with cyno CD3E&G-His/Free and 646000 M⁻¹ s⁻¹ with human CD3E&G-His/Free. Besides, the results for the “EC50 of PBMC killing of H929 ko GPRC5D cells (LDH)” value in assay [10] and in assay [13] were 0.017 nM and 0.0867 nM, respectively. Moreover, the binding result with BCMA-R27P (on cells) and with BCMA-R39A (on cells) was “binds” in each case.
